B1: XPA23 Fab, heavy chain F33N (Fab, V domains shown)
VH: EVQLLESGGGLVQPGGSLRLSCAASGFTFSKYNMFWVRQAPGKGLEWVSVISPSGGMTRYADSVKGRFTISRDNSKNTLYLQMNSLRAEDTAVYYCARVGYGGNSDYWGQGTLVTVSS
VL: DIQMTQSPSSVSASVGDRLTIICRASQDINRWLAWYQQTPGNAPKLLIHSATSLQSGVPSRFSGSGSGTDFTLTINSLQPEDFATYYCQQADSFPLTFGGGTKVEIK
B2: XPA23 Fab, heavy chain F33W (Fab, V domains shown)
VH: EVQLLESGGGLVQPGGSLRLSCAASGFTFSKYWMFWVRQAPGKGLEWVSVISPSGGMTRYADSVKGRFTISRDNSKNTLYLQMNSLRAEDTAVYYCARVGYGGNSDYWGQGTLVTVSS
VL: DIQMTQSPSSVSASVGDRLTIICRASQDINRWLAWYQQTPGNAPKLLIHSATSLQSGVPSRFSGSGSGTDFTLTINSLQPEDFATYYCQQADSFPLTFGGGTKVEIK
B3: XPA23 Fab, heavy chain F35Y (Fab, V domains shown)
VH: EVQLLESGGGLVQPGGSLRLSCAASGFTFSKYFMYWVRQAPGKGLEWVSVISPSGGMTRYADSVKGRFTISRDNSKNTLYLQMNSLRAEDTAVYYCARVGYGGNSDYWGQGTLVTVSS
VL: DIQMTQSPSSVSASVGDRLTIICRASQDINRWLAWYQQTPGNAPKLLIHSATSLQSGVPSRFSGSGSGTDFTLTINSLQPEDFATYYCQQADSFPLTFGGGTKVEIK
B4: XPA23 Fab, heavy chain F33Q (Fab, V domains shown)
VH: EVQLLESGGGLVQPGGSLRLSCAASGFTFSKYQMFWVRQAPGKGLEWVSVISPSGGMTRYADSVKGRFTISRDNSKNTLYLQMNSLRAEDTAVYYCARVGYGGNSDYWGQGTLVTVSS
VL: DIQMTQSPSSVSASVGDRLTIICRASQDINRWLAWYQQTPGNAPKLLIHSATSLQSGVPSRFSGSGSGTDFTLTINSLQPEDFATYYCQQADSFPLTFGGGTKVEIK
B5: XPA23 Fab, heavy chain F35K (Fab, V domains shown)
VH: EVQLLESGGGLVQPGGSLRLSCAASGFTFSKYFMKWVRQAPGKGLEWVSVISPSGGMTRYADSVKGRFTISRDNSKNTLYLQMNSLRAEDTAVYYCARVGYGGNSDYWGQGTLVTVSS
VL: DIQMTQSPSSVSASVGDRLTIICRASQDINRWLAWYQQTPGNAPKLLIHSATSLQSGVPSRFSGSGSGTDFTLTINSLQPEDFATYYCQQADSFPLTFGGGTKVEIK
B6: XPA23 Fab, heavy chain F35Q (Fab, V domains shown)
VH: EVQLLESGGGLVQPGGSLRLSCAASGFTFSKYFMQWVRQAPGKGLEWVSVISPSGGMTRYADSVKGRFTISRDNSKNTLYLQMNSLRAEDTAVYYCARVGYGGNSDYWGQGTLVTVSS
VL: DIQMTQSPSSVSASVGDRLTIICRASQDINRWLAWYQQTPGNAPKLLIHSATSLQSGVPSRFSGSGSGTDFTLTINSLQPEDFATYYCQQADSFPLTFGGGTKVEIK
B7: XPA23 Fab, heavy chain F33S (Fab, V domains shown)
VH: EVQLLESGGGLVQPGGSLRLSCAASGFTFSKYSMFWVRQAPGKGLEWVSVISPSGGMTRYADSVKGRFTISRDNSKNTLYLQMNSLRAEDTAVYYCARVGYGGNSDYWGQGTLVTVSS
VL: DIQMTQSPSSVSASVGDRLTIICRASQDINRWLAWYQQTPGNAPKLLIHSATSLQSGVPSRFSGSGSGTDFTLTINSLQPEDFATYYCQQADSFPLTFGGGTKVEIK
B8: XPA23 Fab, heavy chain F35E (Fab, V domains shown)
VH: EVQLLESGGGLVQPGGSLRLSCAASGFTFSKYFMEWVRQAPGKGLEWVSVISPSGGMTRYADSVKGRFTISRDNSKNTLYLQMNSLRAEDTAVYYCARVGYGGNSDYWGQGTLVTVSS
VL: DIQMTQSPSSVSASVGDRLTIICRASQDINRWLAWYQQTPGNAPKLLIHSATSLQSGVPSRFSGSGSGTDFTLTINSLQPEDFATYYCQQADSFPLTFGGGTKVEIK
B9: XPA23 Fab, heavy chain G55K (Fab, V domains shown)
VH: EVQLLESGGGLVQPGGSLRLSCAASGFTFSKYFMFWVRQAPGKGLEWVSVISPSKGMTRYADSVKGRFTISRDNSKNTLYLQMNSLRAEDTAVYYCARVGYGGNSDYWGQGTLVTVSS
VL: DIQMTQSPSSVSASVGDRLTIICRASQDINRWLAWYQQTPGNAPKLLIHSATSLQSGVPSRFSGSGSGTDFTLTINSLQPEDFATYYCQQADSFPLTFGGGTKVEIK
B10: XPA23 Fab, heavy chain G55D (Fab, V domains shown)
VH: EVQLLESGGGLVQPGGSLRLSCAASGFTFSKYFMFWVRQAPGKGLEWVSVISPSDGMTRYADSVKGRFTISRDNSKNTLYLQMNSLRAEDTAVYYCARVGYGGNSDYWGQGTLVTVSS
VL: DIQMTQSPSSVSASVGDRLTIICRASQDINRWLAWYQQTPGNAPKLLIHSATSLQSGVPSRFSGSGSGTDFTLTINSLQPEDFATYYCQQADSFPLTFGGGTKVEIK
B11: XPA23 Fab, heavy chain F33R (Fab, V domains shown)
VH: EVQLLESGGGLVQPGGSLRLSCAASGFTFSKYRMFWVRQAPGKGLEWVSVISPSGGMTRYADSVKGRFTISRDNSKNTLYLQMNSLRAEDTAVYYCARVGYGGNSDYWGQGTLVTVSS
VL: DIQMTQSPSSVSASVGDRLTIICRASQDINRWLAWYQQTPGNAPKLLIHSATSLQSGVPSRFSGSGSGTDFTLTINSLQPEDFATYYCQQADSFPLTFGGGTKVEIK
B12: XPA23 Fab, heavy chain G55R (Fab, V domains shown)
VH: EVQLLESGGGLVQPGGSLRLSCAASGFTFSKYFMFWVRQAPGKGLEWVSVISPSRGMTRYADSVKGRFTISRDNSKNTLYLQMNSLRAEDTAVYYCARVGYGGNSDYWGQGTLVTVSS
VL: DIQMTQSPSSVSASVGDRLTIICRASQDINRWLAWYQQTPGNAPKLLIHSATSLQSGVPSRFSGSGSGTDFTLTINSLQPEDFATYYCQQADSFPLTFGGGTKVEIK
B13: XPA23 Fab, heavy chain F35D (Fab, V domains shown)
VH: EVQLLESGGGLVQPGGSLRLSCAASGFTFSKYFMDWVRQAPGKGLEWVSVISPSGGMTRYADSVKGRFTISRDNSKNTLYLQMNSLRAEDTAVYYCARVGYGGNSDYWGQGTLVTVSS
VL: DIQMTQSPSSVSASVGDRLTIICRASQDINRWLAWYQQTPGNAPKLLIHSATSLQSGVPSRFSGSGSGTDFTLTINSLQPEDFATYYCQQADSFPLTFGGGTKVEIK
B14: XPA23 Fab, heavy chain F33Y (Fab, V domains shown)
VH: EVQLLESGGGLVQPGGSLRLSCAASGFTFSKYYMFWVRQAPGKGLEWVSVISPSGGMTRYADSVKGRFTISRDNSKNTLYLQMNSLRAEDTAVYYCARVGYGGNSDYWGQGTLVTVSS
VL: DIQMTQSPSSVSASVGDRLTIICRASQDINRWLAWYQQTPGNAPKLLIHSATSLQSGVPSRFSGSGSGTDFTLTINSLQPEDFATYYCQQADSFPLTFGGGTKVEIK
B15: XPA23 Fab, heavy chain G55Q (Fab, V domains shown)
VH: EVQLLESGGGLVQPGGSLRLSCAASGFTFSKYFMFWVRQAPGKGLEWVSVISPSQGMTRYADSVKGRFTISRDNSKNTLYLQMNSLRAEDTAVYYCARVGYGGNSDYWGQGTLVTVSS
VL: DIQMTQSPSSVSASVGDRLTIICRASQDINRWLAWYQQTPGNAPKLLIHSATSLQSGVPSRFSGSGSGTDFTLTINSLQPEDFATYYCQQADSFPLTFGGGTKVEIK
B16: XPA23 Fab, heavy chain F35H (Fab, V domains shown)
VH: EVQLLESGGGLVQPGGSLRLSCAASGFTFSKYFMHWVRQAPGKGLEWVSVISPSGGMTRYADSVKGRFTISRDNSKNTLYLQMNSLRAEDTAVYYCARVGYGGNSDYWGQGTLVTVSS
VL: DIQMTQSPSSVSASVGDRLTIICRASQDINRWLAWYQQTPGNAPKLLIHSATSLQSGVPSRFSGSGSGTDFTLTINSLQPEDFATYYCQQADSFPLTFGGGTKVEIK
B17: XPA23 Fab, heavy chain F35W (Fab, V domains shown)
VH: EVQLLESGGGLVQPGGSLRLSCAASGFTFSKYFMWWVRQAPGKGLEWVSVISPSGGMTRYADSVKGRFTISRDNSKNTLYLQMNSLRAEDTAVYYCARVGYGGNSDYWGQGTLVTVSS
VL: DIQMTQSPSSVSASVGDRLTIICRASQDINRWLAWYQQTPGNAPKLLIHSATSLQSGVPSRFSGSGSGTDFTLTINSLQPEDFATYYCQQADSFPLTFGGGTKVEIK
B18: XPA23 Fab, heavy chain F35S (Fab, V domains shown)
VH: EVQLLESGGGLVQPGGSLRLSCAASGFTFSKYFMSWVRQAPGKGLEWVSVISPSGGMTRYADSVKGRFTISRDNSKNTLYLQMNSLRAEDTAVYYCARVGYGGNSDYWGQGTLVTVSS
VL: DIQMTQSPSSVSASVGDRLTIICRASQDINRWLAWYQQTPGNAPKLLIHSATSLQSGVPSRFSGSGSGTDFTLTINSLQPEDFATYYCQQADSFPLTFGGGTKVEIK
B19: XPA23 Fab, heavy chain G55E (Fab, V domains shown)
VH: EVQLLESGGGLVQPGGSLRLSCAASGFTFSKYFMFWVRQAPGKGLEWVSVISPSEGMTRYADSVKGRFTISRDNSKNTLYLQMNSLRAEDTAVYYCARVGYGGNSDYWGQGTLVTVSS
VL: DIQMTQSPSSVSASVGDRLTIICRASQDINRWLAWYQQTPGNAPKLLIHSATSLQSGVPSRFSGSGSGTDFTLTINSLQPEDFATYYCQQADSFPLTFGGGTKVEIK
B20: XPA23 Fab, heavy chain G55N (Fab, V domains shown)
VH: EVQLLESGGGLVQPGGSLRLSCAASGFTFSKYFMFWVRQAPGKGLEWVSVISPSNGMTRYADSVKGRFTISRDNSKNTLYLQMNSLRAEDTAVYYCARVGYGGNSDYWGQGTLVTVSS
VL: DIQMTQSPSSVSASVGDRLTIICRASQDINRWLAWYQQTPGNAPKLLIHSATSLQSGVPSRFSGSGSGTDFTLTINSLQPEDFATYYCQQADSFPLTFGGGTKVEIK
B21: XPA23 Fab, heavy chain F35N (Fab, V domains shown)
VH: EVQLLESGGGLVQPGGSLRLSCAASGFTFSKYFMNWVRQAPGKGLEWVSVISPSGGMTRYADSVKGRFTISRDNSKNTLYLQMNSLRAEDTAVYYCARVGYGGNSDYWGQGTLVTVSS
VL: DIQMTQSPSSVSASVGDRLTIICRASQDINRWLAWYQQTPGNAPKLLIHSATSLQSGVPSRFSGSGSGTDFTLTINSLQPEDFATYYCQQADSFPLTFGGGTKVEIK
B22: XPA23 Fab, heavy chain F35R (Fab, V domains shown)
VH: EVQLLESGGGLVQPGGSLRLSCAASGFTFSKYFMRWVRQAPGKGLEWVSVISPSGGMTRYADSVKGRFTISRDNSKNTLYLQMNSLRAEDTAVYYCARVGYGGNSDYWGQGTLVTVSS
VL: DIQMTQSPSSVSASVGDRLTIICRASQDINRWLAWYQQTPGNAPKLLIHSATSLQSGVPSRFSGSGSGTDFTLTINSLQPEDFATYYCQQADSFPLTFGGGTKVEIK

Each binder was assayed against T1, IL-1beta (UniProt P01584 117-269) (assay: Biacore).
T1 construct: also called IL-1β

Binder	fold difference in affinity vs parental [fold]	binding result
B1	0.97	–
B2	0.79	–
B3	0.85	–
B4	0.78	–
B5	0.68	–
B6	–	no binding
B7	0.73	–
B8	–	no binding
B9	0.11	–
B10	–	no binding
B11	–	no binding
B12	0.95	–
B13	0.06	–
B14	0.77	–
B15	0.9	–
B16	–	no binding
B17	–	no binding
B18	0.09	–
B19	0.11	–
B20	0.1	–
B21	0.86	–
B22	–	no binding

From patent publication US20110118131A1 (published 2011)
